In PMC5723990, “Calmodulin regulates Cav3 T-type channels at their gating brake” (The Journal of Biological Chemistry, 2017):
Where two headings read alike, the source gives them in different places. No end group written: not given here.

What was measured:
[1] = system: Ca^2+–CaM; assay: Gel mobility-shift assay with CaM; assay type: binding, rat; conditions: molar ratio of CaMB peptide to CaM for saturating gel-mobility shift; native PAGE, 0.1 mM CaCl2, ratios 0.5–4×, incubated ≥1 h at 4 °C; three replicate experiments
Protocol: (§1) We followed protocols that we have described previously in an analysis of CaM binding with snail or human L-type calcium channel peptides in the presence of 0.1 or 0.5 mM CaCl2-containing solution ([9]).
(§2) Rat CaM was purified using phenyl-Sepharose 6 Fast-Flow (High Sub) (GE Healthcare), packed to ∼10 ml volume, by gravity flow at 4 °C. Codon-optimized CaM was cloned in pET9d, a T7 Escherichia coli expression vector. CaM was transformed into BL21 DE3 E. coli and grown at 37 °C and 200 rpm to OD of 0.4–0.6 (for Luria Broth, LB) or 0.5–0.9 (for SuperBroth, SB), at which point samples were induced by 1 mM added isopropyl β-D-1-thiogalactopyranoside and grown for another 4 (for SB) to 6 (for LB) h. Robust expression of soluble CaM was confirmed by SDS-PAGE. Cells were collected by centrifugation at ∼4000 × g, then lysed in high-salt buffer (0.1 M Tris-Cl, pH 7.5, 0.5 M NaCl, 0.5 M ammonium sulfate, 1 mM DTT) using an Avestin Emulsiflex homogenizer at 15,000–20,000 p.s.i. with jacketed water cooling, through which the cells were passed ∼3× on average. The cell lysate was clarified by centrifugation at 20,000 rpm in an SS-34 rotor (∼50,000 × g) at 4 °C for 30 min. To the cleared lysate, CaCl2 was added to a final concentration of 10 mM. The lysate was then applied to the gravity phenyl-Sepharose column equilibrated with the same high salt buffer (and 1 mM CaCl2). […]

[2] = Aggregation of peptides in buffers; assay type: physicochemical; conditions: observation during CD (PBS: 10 mM sodium phosphate pH 7.3, 137 mM NaCl) and ITC sample preparation
Protocol: CD measurements were performed using a Jasco-715 spectropolarimeter (Jasco Instruments, Easton, MD), using the following parameters: 250–190-nm range, 50 nm/min speed, with 1-s response time, 1-nm bandwidth, and 100-millidegree sensitivity at room temperature. 16–25 accumulations were gathered depending on signal quality. Recordings were made in a 1-mm cuvette, in 10 mM sodium phosphate buffer with 0.1 mM added CaCl2, and used as baseline, which was subtracted from each recording. For CaM and CaMB peptide spectra, the same solution of 10 μM CaM was scanned before stock (1 mM) peptide was added in incremental amounts before being scanned again. The resulting spectra were subtracted (e.g. CaM and CaMB peptide-CaM alone) to extract the spectrum corresponding to the change associated with adding the peptide. Every recording was an average of at least 16 accumulations and subsequently corrected for protein concentration (converted to units of mean residue ellipticity). These were smoothed and exported into ASCII format for analysis with Excel and either SOMCD or Dichroweb K2d algorithm (http://dichroweb.cryst.bbk.ac.uk)^6 ([92], [93]). […]
(§3) Heat gain or heat requirements in the sample cell (for exothermic binding or endothermic binding, respectively) correspond to the direction of the injection peaks measured in the isothermal titration calorimeter (MicroCal iTC200, Malvern Instruments, UK). […]

[3] = biological target: T1, C-CaM (C-lobe of CaM, 74-aa construct) (Homo sapiens, UniProt P0DP23); assay: Isothermal titration calorimetry with C-lobe of CaM; conditions: ITC, one-set-of-sites fit, 25 °C, 10 mM HEPES pH 7.0, 0.1 mM CaCl2, mean of n = 3 (Fig. 6A), read-out: Binding affinity (Ka)
T1 construct: partial CaMs: N-CaM(1–74), C-CaM(75–148); His tag; made in house; host or cells: bacteria (E. coli)
Source text: (§4) We have used human CaM and associated CaM mutants that we have described before ([9]), CaM(1–44) and partial CaMs: N-CaM(1–74), C-CaM(75–148), and CaMs that simulate CaM binding in the absence of calcium, by substitution of glutamate residues in the two calcium-binding sites in the N-terminal lobe (CaM12) or C-terminal lobe (CaM34), or mutation of all four calcium-binding sites (CaM1234) of CaM. CaM–GFP used for Western blotting is a construct consisting of GFP fused to the C terminus of CaM expressed in pcDNA3.1 (Cell Signaling Technology) ([83]). EGFP expression vector was obtained by subcloning EGFP from pEGFP-C1 (BD Biosciences) into the multiple cloning site of pcDNA3.1. The CaM1234 overexpression construct contained bicistronic marker mRFP (to generate a red color) ([46]) to distinguish from the channel expression with bicistronic EGFP (to generate a green color). The CaM1234 overexpression construct also containing CaM shRNA knockdown includes two short hairpin sequences described above to knock down CaM (Calm1,2,3 genes) ([46][–][48]). […]
as §3

[4] = biological target: T2, N-CaM (N-lobe of CaM, 74-aa construct) (Homo sapiens, UniProt P0DP23); assay: Isothermal titration calorimetry with N-lobe of CaM; conditions: ITC, one-set-of-sites fit, 25 °C, 10 mM HEPES pH 7.0, 0.1 mM CaCl2, mean of n = 3 (Fig. 6A), read-out: Binding affinity (Ka)
T2 construct: partial CaMs: N-CaM(1–74), C-CaM(75–148); His tag; made in house; host or cells: bacteria (E. coli)
Source text: as §4, §3

[5] = biological target: T3, Ca^2+–CaM (wild-type calmodulin) (Rattus norvegicus, UniProt P0DP29); assay: Isothermal titration calorimetry of CaMB peptides with wild-type CaM; conditions: ITC, one-set-of-sites fit, 25 °C, 10 mM HEPES pH 7.0, 0.1 mM CaCl2 (b23 says 0.5 mM CaCl2), mean of n = 3 (Fig. 6A), read-out: Binding affinity (Ka)
T3 construct: His tag; made in house; host or cells: E. coli BL21 DE3 (pET9d)
Protocol: as §1
as §2, with “average.” for “average. The cell lysate was clarified by centrifugation at 20,000 rpm in an SS-34 rotor (∼50,000 × g) at 4 °C for 30 min. To the cleared lysate, CaCl2 was added to a final concentration of 10 mM. The lysate was then applied to the gravity phenyl-Sepharose column equilibrated with the same high salt buffer (and 1 mM CaCl2).”
as §3

[6] = biological target: calmodulin (CaM), wild type, bacterially expressed (rat) (UniProt P0DP29); assay: ITC; 10 mM HEPES pH 7.0, 0.1 mM CaCl2 (results: 0.5 mM CaCl2), 25 °C, one-set-of-sites model, mean of three replicates
[7] = biological target: calmodulin (CaM), wild type, bacterially expressed (rat) (UniProt P0DP29); assay: native gel or EMSA; gel-mobility shift of CaM with 0.5–4× molar ratios of peptide; native gels with 4 M urea, 0.1 mM CaCl2 in running buffer; incubation ≥1 h at 4 °C in 150 mM NaCl, 50 mM Tris-Cl pH 7.5, 1 mM CaCl2
[8] = biological target: calmodulin (CaM), wild type, bacterially expressed (rat) (UniProt P0DP29); assay: ITC; 10 mM HEPES pH 7.0, 0.1 mM CaCl2 (results: 0.5 mM CaCl2), 25 °C, one-set-of-sites model, mean of three replicates; remark: listed apart in the source
[9] = biological target: CaM_(1234), CaM with all four Ca^2+-binding sites mutated (human) (UniProt P0DP23); assay: as above
[10] = biological target: C-CaM(75–148), C-terminal lobe of CaM (human) (UniProt P0DP23); assay: as above

YEEIFQYVCHILRKAKRRALGLYQAL [Cav3.3]
[CaMB Peptide] for Complete shift [1]: > 4.0 x | aggregation [2]: severe aggregation issues in PBS

YEELLKYLVYILRKAARRLAQVSRAA [Cav3.1]
[CaMB Peptide] for Complete shift [1]: 1.5 x | aggregation [2]: severe aggregation issues in PBS

YEELLKYVGHIFRKVKRRSLRLYARW [Cav3.2]
Kd [3]: 691 nM | Kd [4]: 31.1 nM | Kd [5]: 187 nM

YSELLKLVAQVYRRVKRKVIKTYYKT [LCav3]
Kd [5]: 12.4 nM

human Cav3.1 CaMB peptide (26-mer gating brake peptide)
Kd [6]: 36 nM | CaMB peptide to CaM ratio required for a saturating gel-mobility shift (× (peptide to CaM ratio)) [7]: 1.5 | Kd [8]: 42.7 nM | stoichiometry N [8]: 1 | Kd [9]: 543 nM

human Cav3.2 CaMB peptide (26-mer gating brake peptide)
Kd [6]: 196 nM | CaMB peptide to CaM ratio required for a saturating gel-mobility shift (× (peptide to CaM ratio)) [7]: 1.5 | Kd [10]: 690 nM | stoichiometry N [8]: 1

human Cav3.3 CaMB peptide (26-mer gating brake peptide)
CaMB peptide to CaM ratio required for a saturating gel-mobility shift (× (peptide to CaM ratio)) [7]: > 4 | Kd [8]: 383 nM | stoichiometry N [8]: 1

snail LCav3 CaMB peptide (26-mer gating brake peptide)
Kd [6]: 10 nM | CaMB peptide to CaM ratio required for a saturating gel-mobility shift (× (peptide to CaM ratio)) [7]: 1 | stoichiometry N [8]: 1 | fold reduced affinity compared with wild-type CaM [9]: 349 fold
